Consider 37 molecules from patent publication US20030138894A1 (Human Genome Sciences, published 2003).

The labels stand for the following.
B1: ACE-2 binding polypeptide SPTCRALFCVDF (peptide)
peptide: SPTCRALFCVDF
modifications: not fully specified (N-terminus, C-terminus, bridges); cysteine pairing not given here
B2: ACE-2 binding polypeptide WPTCLTMDCVYN (peptide)
peptide: WPTCLTMDCVYN
modifications: not fully specified (N-terminus, C-terminus, bridges); cysteine pairing not given here
B3: ACE-2 binding polypeptide RIGCRDSRCNWWAPG (peptide)
peptide: RIGCRDSRCNWWAPG
modifications: not fully specified (N-terminus, C-terminus, bridges); cysteine pairing not given here
B4: ACE-2 binding polypeptide RGFCRDSSCSFP (peptide)
peptide: RGFCRDSSCSFP
modifications: not fully specified (N-terminus, C-terminus, bridges); cysteine pairing not given here
B5: ACE-2 binding polypeptide DDDCGWIGFANFHLCLHG (peptide)
peptide: DDDCGWIGFANFHLCLHG
modifications: not fully specified (N-terminus, C-terminus, bridges); cysteine pairing not given here
B6: ACE-2 binding polypeptide PFECDWGPWTLEMLCGPP (peptide)
peptide: PFECDWGPWTLEMLCGPP
modifications: not fully specified (N-terminus, C-terminus, bridges); cysteine pairing not given here
B7: ACE-2 binding polypeptide WVLCFEWEDCDEK (peptide)
peptide: WVLCFEWEDCDEK
modifications: not fully specified (N-terminus, C-terminus, bridges); cysteine pairing not given here

Positions of bridges follow the written chain, without caps; N, C: chain ends. No end group written: not given here.

T1 sequence (Q9BYF1 18-740 limits assumed): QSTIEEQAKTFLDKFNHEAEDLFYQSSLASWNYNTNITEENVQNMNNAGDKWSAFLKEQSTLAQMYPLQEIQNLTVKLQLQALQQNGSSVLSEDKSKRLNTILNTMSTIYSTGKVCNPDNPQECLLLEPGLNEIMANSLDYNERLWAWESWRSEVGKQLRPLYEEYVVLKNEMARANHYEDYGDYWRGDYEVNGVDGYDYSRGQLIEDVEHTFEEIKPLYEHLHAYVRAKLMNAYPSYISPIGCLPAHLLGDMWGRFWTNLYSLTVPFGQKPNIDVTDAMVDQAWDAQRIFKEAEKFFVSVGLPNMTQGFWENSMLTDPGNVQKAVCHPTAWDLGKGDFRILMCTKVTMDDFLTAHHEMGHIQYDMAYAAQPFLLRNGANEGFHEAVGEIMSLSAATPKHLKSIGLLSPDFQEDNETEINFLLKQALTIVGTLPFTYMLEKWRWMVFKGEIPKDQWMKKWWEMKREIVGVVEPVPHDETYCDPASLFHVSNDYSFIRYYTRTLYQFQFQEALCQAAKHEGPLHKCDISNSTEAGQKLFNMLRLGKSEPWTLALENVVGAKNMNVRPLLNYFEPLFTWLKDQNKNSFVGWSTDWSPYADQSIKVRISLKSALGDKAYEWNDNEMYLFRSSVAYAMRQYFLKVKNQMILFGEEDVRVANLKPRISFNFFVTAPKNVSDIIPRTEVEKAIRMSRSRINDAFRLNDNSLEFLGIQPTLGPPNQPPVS

The experiment has as its target T1, FLAG-tagged ACE-2 target (human, UniProt Q9BYF1 18-740).
T1 construct: range 1-740; obtained from Human Genome Sciences, Inc; also called FLAG-ACE-2; tagged human ACE-2; not shown: FLAG tag
Description: phage ELISA on FLAG-ACE-2. On the procedure: Phage enriched from the third round of selection were screened by ELISA for strong ACE-2 binders. Immulon 2 96-well plates (Dynatech) were coated with streptavidin for 1 hour at 37° C. and subsequently coated with anti-FLAG antibody for 1 hour at room temperature. Half of the plates were further coated with FLAG-ACE-2 as the target plates, and the other half of the plates were coated with FLAG peptide as background plates. The amount of each protein or peptide coated was 100 ng per well. The coated plates were then incubated for 1 hour at room temperature with 1:2 diluted overnight phage cultures that were made by inoculating phage from individual plaques into bacterial host cells. After being washed 7 times with PBST, the plates were incubated with HRP-conjugated anti-M13 antibody (Pharmacia) for 1 hour at room temperature, washed 5 times, developed with TMB peroxidase substrate solution (Kirkegaad & Perry Laboratories, Gaithersburg, Md.), and read at 630 nm on an ELISA plate reader.
(ELISA stands for enzyme-linked immunosorbent assay.)
With B1, the binding result is “binds”.
With VGFCFDWEPCDEL (not fully specified (bridges); cysteine pairing not given here) [ACE-2 binding polypeptide VGFCFDWEPCDEL], the binding result is “binds”.
On to FHDCSWGPWGPWEICTRL (not fully specified (bridges); cysteine pairing not given here) [ACE-2 binding polypeptide FHDCSWGPWGPWEICTRL], for which the binding result is reported as “binds”.
As for NDVCLNDDCVYG (not fully specified (bridges); cysteine pairing not given here) [ACE-2 binding polypeptide NDVCLNDDCVYG], the binding result was “binds”.
With GSDCEWVNFTMFQMCISN (not fully specified (bridges); cysteine pairing not given here) [ACE-2 binding polypeptide GSDCEWVNFTMFQMCISN] the entry was “binds”; with HFSCRLPSLDSRCQLW (not fully specified (bridges); cysteine pairing not given here) [ACE-2 binding polypeptide HFSCRLPSLDSRCQLW], “binds”.
Turning to IGFCFEWEVCYEG (not fully specified (bridges); cysteine pairing not given here) [ACE-2 binding polypeptide IGFCFEWEVCYEG], the binding result was “binds”.
Take SNDCVWLQFWGGDMCFLP (not fully specified (bridges); cysteine pairing not given here) [ACE-2 binding polypeptide SNDCVWLQFWGGDMCFLP]: the binding result is given as “binds”.
Next, LYECEWKQFGPVEMCLNF (not fully specified (bridges); cysteine pairing not given here) [ACE-2 binding polypeptide LYECEWKQFGPVEMCLNF]: “binds”; YEYCFEWEQCWEK (not fully specified (bridges); cysteine pairing not given here) [ACE-2 binding polypeptide YEYCFEWEQCWEK]: “binds”.
Regarding SENCQALFCVDF (not fully specified (bridges); cysteine pairing not given here) [ACE-2 binding polypeptide SENCQALFCVDF], the binding result was “binds”.
Next, GIFCFEWETCYQA (not fully specified (bridges); cysteine pairing not given here) [ACE-2 binding polypeptide GIFCFEWETCYQA]: “binds”; B2: “binds”.
On to SGECNWQQFSGWEICLRD (not fully specified (bridges); cysteine pairing not given here) [ACE-2 binding polypeptide SGECNWQQFSGWEICLRD], for which the binding result was “binds”.
With NADCEWVNFNHVDLCMWN (not fully specified (bridges); cysteine pairing not given here) [ACE-2 binding polypeptide NADCEWVNFNHVDLCMWN] the entry was “binds”; with B3, “binds”; with B4, “binds”.
As to RGHCRDSRCMMNAPG (not fully specified (bridges); cysteine pairing not given here) [ACE-2 binding polypeptide RGHCRDSRCMMNAPG], the binding result was “binds”.
Next, HSECRWEWFGRTMICMSF (not fully specified (bridges); cysteine pairing not given here) [ACE-2 binding polypeptide HSECRWEWFGRTMICMSF]: “binds”; YDWCFDWEQCWDQ (not fully specified (bridges); cysteine pairing not given here) [ACE-2 binding polypeptide YDWCFDWEQCWDQ]: “binds”.
On to DDVCENADFAWLGWCMHF (not fully specified (bridges); cysteine pairing not given here) [ACE-2 binding polypeptide DDVCENADFAWLGWCMHF], for which the binding result was “binds”.
Next, HLRCMTSDCIHF (not fully specified (bridges); cysteine pairing not given here) [ACE-2 binding polypeptide HLRCMTSDCIHF]: “binds”; NIFCFDWEPCHFG (not fully specified (bridges); cysteine pairing not given here) [ACE-2 binding polypeptide NIFCFDWEPCHFG]: “binds”; SIYCFDWEDCWDE (not fully specified (bridges); cysteine pairing not given here) [ACE-2 binding polypeptide SIYCFDWEDCWDE]: “binds”.
With B5 the entry was “binds”; with B6, “binds”; with FDDCQTSWFQGFWLCIDD (not fully specified (bridges); cysteine pairing not given here) [ACE-2 binding polypeptide FDDCQTSWFQGFWLCIDD], “binds”.
For the molecule RGWCLDSRCKVF (not fully specified (bridges); cysteine pairing not given here) [ACE-2 binding polypeptide RGWCLDSRCKVF], the binding result is “binds”.
Regarding AYLCDWILFDSFEMCLAP (not fully specified (bridges); cysteine pairing not given here) [ACE-2 binding polypeptide AYLCDWILFDSFEMCLAP], the binding result is listed as “binds”.
On to AWDCEWNLFDSTFFCPGF (not fully specified (bridges); cysteine pairing not given here) [ACE-2 binding polypeptide AWDCEWNLFDSTFFCPGF], for which the binding result is listed as “binds”.
On to FFPCRALEKDSRCSFF (not fully specified (bridges); cysteine pairing not given here) [ACE-2 binding polypeptide FFPCRALEKDSRCSFF], for which the binding result is “binds”.
For the molecule NRECHALFCMDF (disulfide 4-9 (inferred); not fully specified (N-terminus, C-terminus)) [ACE-2 binding polypeptide NRECHALFCMDF], the binding result is on record as “binds”.
With HYNCHTNDCVVL (not fully specified (bridges); cysteine pairing not given here) [ACE-2 binding polypeptide HYNCHTNDCVVL] the entry was “binds”.
Next, FLFCRLASRDSRCASP (not fully specified (bridges); cysteine pairing not given here) [ACE-2 binding polypeptide FLFCRLASRDSRCASP]: “binds”; MDFCFDWEECWTN (not fully specified (bridges); cysteine pairing not given here) [ACE-2 binding polypeptide MDFCFDWEECWTN]: “binds”; B7: “binds”.
For the molecule FNPCRLQSRDSACRFR (not fully specified (bridges); cysteine pairing not given here) [ACE-2 binding polypeptide FNPCRLQSRDSACRFR], the binding result is recorded as “binds”.
